Numbering of substitutions follows the chain as printed.
B1: P1-071757 (P1-061029_HC_K16R_T84A, FW revertant) (antibody, V domains shown)
VH: EVQLVESGGGLVQPGRSLRLSCAASGFTLDDYAMHWVRQAPGKGLEWVSGINWNSANIGYADSVKGRFTISRDNAKNSLYLQMNSLRAEDTALYYCAKVPGYSGGWIDAFDVWGQGTMVTVSS
VL: not shown
notes: VH/VL only
B2: P1-071761 (P1-061029_HC_T84A, FW revertant) (antibody, V domains shown)
VH: B1 VH with R16K
VL: not shown
notes: VH/VL only
B3: P1-071759 (P1-061029_HC_K16R, FW revertant) (antibody, V domains shown)
VH: B1 VH with A88T
VL: not shown
notes: VH/VL only
B4: P1-068761_E30D_E32Y (antibody, human IgG1, kappa, V domains shown)
VH: B1 VH with R16K, A56E, N57E, A88T, G104H, F110E
VL: not shown
notes: also called P1-070876
B5: P1-068761_E56N_E100fF (antibody, human IgG1, kappa, V domains shown)
VH: B1 VH with R16K, D30E, Y32E, A56E, A88T, G104H
VL: not shown
notes: also called P1-070902
B6: P1-068767_E55A_D102V (antibody, human IgG1, kappa, V domains shown)
VH: B1 VH with R16K, D30E, N52D, A88T, F110E
VL: not shown
notes: also called P1-070932
B7: P1-068767_E30D_D102V (antibody, human IgG1, kappa, V domains shown)
VH: B1 VH with R16K, N52D, A56E, A88T, F110E
VL: not shown
notes: also called P1-070926
B8: P1-068761_E32Y_E55A (antibody, human IgG1, kappa, V domains shown)
VH: B1 VH with R16K, D30E, N57E, A88T, G104H, F110E
VL: not shown
notes: also called P1-070882
B9: P1-068761_E32Y_E56N (antibody, human IgG1, kappa, V domains shown)
VH: B1 VH with R16K, D30E, A56E, A88T, G104H, F110E
VL: not shown
notes: also called P1-070884
B10: P1-068767_D102V (antibody, human IgG1, kappa, V domains shown)
VH: B1 VH with R16K, D30E, N52D, A56E, A88T, F110E
VL: not shown
notes: also called P1-070912
B11: P1-068761_E100fF (antibody, human IgG1, kappa, V domains shown)
VH: B1 VH with R16K, D30E, Y32E, A56E, N57E, A88T, G104H
VL: not shown
notes: also called P1-070874
B12: P1-068761_E32Y_E100fF (antibody, human IgG1, kappa, V domains shown)
VH: B1 VH with R16K, D30E, A56E, N57E, A88T, G104H
VL: not shown
notes: also called P1-070888
B13: P1-068761_E32Y_H100G (antibody, human IgG1, kappa, V domains shown)
VH: B1 VH with R16K, D30E, A56E, N57E, A88T, F110E
VL: not shown
notes: also called P1-070886
B14: P1-068767_D52N_D102V (antibody, human IgG1, kappa, V domains shown)
VH: B1 VH with R16K, D30E, A56E, A88T, F110E
VL: not shown
notes: also called P1-070930
B15: P1-068761_E30D_E100fF (antibody, human IgG1, kappa, V domains shown)
VH: B1 VH with R16K, Y32E, A56E, N57E, A88T, G104H
VL: not shown
notes: also called P1-070896
B16: P1-068761_E55A_E100fF (antibody, human IgG1, kappa, V domains shown)
VH: B1 VH with R16K, D30E, Y32E, N57E, A88T, G104H
VL: not shown
notes: also called P1-070898
B17: P1-068761_E32Y (antibody, human IgG1, kappa, V domains shown)
VH: B1 VH with R16K, D30E, A56E, N57E, A88T, G104H, F110E
VL: not shown
notes: also called P1-070866
B18: P1-068761_H100G_E100fF (antibody, human IgG1, kappa, V domains shown)
VH: B1 VH with R16K, D30E, Y32E, A56E, N57E, A88T
VL: not shown
notes: also called P1-070880
B19: P1-070916 (P1-068767_D52N_E55A) IgG1.3 (antibody, V domains shown)
VH: B1 VH with R16K, D30E, A88T, F110E, V112D
VL: not shown
notes: IgG1.3
B20: P1-070908 (P1-068767_E55A) IgG1.3 (antibody, V domains shown)
VH: B1 VH with R16K, D30E, N52D, A88T, F110E, V112D
VL: not shown
notes: IgG1.3
B21: P1-070906 (P1-068767_D52N) IgG1.3 (antibody, V domains shown)
VH: B1 VH with R16K, D30E, A56E, A88T, F110E, V112D
VL: not shown
notes: IgG1.3
B22: P1-068767_E30D_E100fF (antibody, human IgG1, kappa, V domains shown)
VH: B1 VH with R16K, N52D, A56E, A88T, V112D
VL: not shown
notes: also called P1-070924
B23: P1-068767_E100fF (antibody, human IgG1, kappa, V domains shown)
VH: B1 VH with R16K, D30E, N52D, A56E, A88T, V112D
VL: not shown
notes: also called P1-070910
B24: P1-068767_E30D_D52N (antibody, human IgG1, kappa, V domains shown)
VH: B1 VH with R16K, A56E, A88T, F110E, V112D
VL: not shown
notes: also called P1-070914
B25: P1-068767_E30D (antibody, human IgG1, kappa, V domains shown)
VH: B1 VH with R16K, N52D, A56E, A88T, F110E, V112D
VL: not shown
notes: also called P1-070904
B26: P1-068767_D52N_E100fF (antibody, human IgG1, kappa, V domains shown)
VH: B1 VH with R16K, D30E, A56E, A88T, V112D
VL: not shown
notes: also called P1-070928
B27: P1-068767_E55A_E100fF (antibody, human IgG1, kappa, V domains shown)
VH: B1 VH with R16K, D30E, N52D, A88T, V112D
VL: not shown
notes: also called P1-070918
B28: P1-068767_E30D_E55A (antibody, human IgG1, kappa, V domains shown)
VH: B1 VH with R16K, N52D, A88T, F110E, V112D
VL: not shown
notes: also called P1-070922

molecular target: T1, monovalent hVISTA-ECD (amino acids 32-193 of SEQ ID NO: 1 with a 7xHis tail) (human, UniProt Q9H7M9 33-193); assay: SPR, mAb on Protein A, 37C, pH 6.0
T1 construct: also called huVISTA-His; human VISTA-ECD
Procedure: (§1) Binding of several preparations of each of the '029 progeny clones and of the parent '029 antibodies, formatted as IgG1.3 antibodies, to human VISTA at pH 6.0 and 7.4 was measured by Surface plasmon resonance (SPR). SPR analysis was performed to measure koff and KD binding affinity measurements for VISTA Abs at acidic and neutral pHs using a Biacore® T100 instrument (GE Healthcare). Protein A (ThermoFisher Scientific catalog #21181) was diluted to 20 μg/ml in 10 mM sodium acetate pH 4.5 and immobilized onto flow cells of a CM5 biosensor following the manufacturer's amine coupling protocol (GE Healthcare), targeting 2,000 RU immobilization density of Protein A per flow cell. SPR experiments were conducted at 37° C. using PBST (137 mM sodium chloride, 2.7 mM potassium chloride, 10 mM phosphate buffer, 0.05% Tween® 20) running buffer at pH 7.4 and 6.0. Antibodies were diluted to 25 nM in PBST pH 7.4, and were captured across active biosensor flow cells at 5 ul/min for 60 seconds. A concentration series of 50-5 nM monovalent hVISTA-ECD (SEQ ID NO: 325) was prepared in pH 7.4 and 6.0 running buffers, and was injected over the captured antibodies at 40 ul/min to measure association and dissociation. Two 15 second injections of 10 mM glycine pH 1.5 were used to regenerate the Protein A capture surface between assay cycles. Rate constants ka (kₒₙ) and kd (koff) were derived from reference flow cell and 0 nM blank-subtracted sensorgrams, and were fit to a 1:1 binding model in Biacore® T200 Evaluation Software v.2.0. The affinity constant, KD was calculated as the ratio of rate constants koff/kₒₙ for each VISTA antibody.

Binder | Kd [nM] | koff [s⁻¹] | kon [M⁻¹ s⁻¹]
B1 | 7.3 | 0.0059 | 810000
B2 | 6.9 | 0.006 | 870000
B3 | 7.4 | 0.0059 | 800000

molecular target: T1, monovalent hVISTA-ECD (amino acids …); assay: SPR, mAb captured on Protein A, hVISTA-ECD analyte, 37 C, pH 7.4
Procedure: (§2) Binding kinetics were measured using a Biacore® T100 instrument (GE Healthcare). Protein A (ThermoFisher Scientific catalog #21181) was diluted to 20 μg/ml in 10 mM sodium acetate pH 4.5 and immobilized onto flow cells of a CM5 biosensor following the manufacturer's amine coupling protocol (GE Healthcare), targeting 2,000 RU immobilization density of Protein A per flow cell. The assay was conducted at 37° C. using PBST (137 mM sodium chloride, 2.7 mM potassium chloride, 10 mM phosphate buffer, 0.05% Tween 20) running buffer at pH 7.4, 6.7 and 6.0. Antibodies were diluted to 25 nM in PBST pH 7.4, and were captured across active biosensor flow cells at 5 ul/min for 40 seconds. A concentration series of 100-10 nM monovalent hVISTA-ECD (SEQ ID NO: 325) was prepared in pH 7.4, 6.7 and 6.0 running buffers, and was injected over the captured antibodies at 40 ul/min to measure association and dissociation. Two 15 second injections of 10 mM glycine pH 1.5 were used to regenerate the Protein A capture surface between assay cycles. Rate constants ka (kon) and kd (koff) were derived from reference flow cell and 0 nM blank-subtracted sensorgrams, and were fit to a 1:1 binding model in Biacore® T200 Evaluation Software v.2.0.
(§3) The affinity constant, KD was calculated as the ratio of rate constants koff/kₒₙ for each VISTA antibody. The % Rmax was calculated to compare how pH affects an antibody's binding capacity for VISTA, and represents the measured maximal VISTA binding response relative to the expected maximal VISTA binding response. The % Rmax is defined as the ratio of the reference-subtracted ‘binding’ report point response at the end of the 100 nM VISTA injection for each antibody (Rmax) relative to the expected VISTA binding response (Rexp). Rexp is calculated as Rexp=[(VISTA-ECD molecular weight/mAb molecular weight)×(mAb ‘capture’ report point response (RUs)]×2 binding sites per mAb.

Binder | koff [s⁻¹]
B4 | 0.0035
B5 | 0.003
B6 | 0.01
B7 | 0.011
B8 | 0.0027
B9 | 0.0032
B10 | 0.0092
B11 | 0.0013
B12 | 0.0019
B13 | 0.0055
B14 | 0.0067
B15 | 0.0035
B16 | 0.0017
B17 | 0.0025
B18 | 0.0023

molecular target: T1, monovalent hVISTA-ECD (amino acids …); assay: SPR, mAb captured on Protein A, hVISTA-ECD analyte, 37 C, pH 6.7
Procedure: as §2, §3

Binder | koff [s⁻¹]
B6 | 0.0031
B7 | 0.0035
B19 | 0.0055
B10 | 0.0028
B20 | 0.0085
B21 | 0.0067
B14 | 0.0018
B22 | 0.027
B23 | 0.026

molecular target: T1, monovalent hVISTA-ECD (amino acids …); assay: SPR, mAb captured on Protein A, hVISTA-ECD analyte, 37 C, pH 6.0
Procedure: as §2, §3

Binder | koff [s⁻¹]
B6 | 0.002
B7 | 0.003
B19 | 0.0015
B24 | 0.0023
B10 | 0.002
B20 | 0.0023
B25 | 0.0032
B26 | 0.066
B21 | 0.0015
B14 | 0.0012
B27 | 0.013
B28 | 0.0035

molecular target: T1, monovalent hVISTA-ECD (amino acids …); assay: as above; remark: another data set of the same source
Procedure: as §2, §3

Binder | koff [s⁻¹]
B4 | 0.00071
B5 | 0.00038
B8 | 0.00057
B9 | 0.0007
B11 | 0.00013
B12 | 0.0011
B13 | 0.00092
B15 | 0.00033
B16 | 0.00018
B17 | 0.00041
B18 | 0.00021

molecular target: T1, monovalent hVISTA-ECD (amino acids …); assay: SPR, mAb on Protein A, 37C, pH 6.0; pH 6.0
Procedure: as §1

Binder | Kd [nM] | koff [s⁻¹] | kon [M⁻¹ s⁻¹]
B19 | 7.4 | 0.0017 | 230000
B20 | 11 | 0.0025 | 220000
B21 | 6.7 | 0.0016 | 240000

molecular target: T1, monovalent hVISTA-ECD (amino acids …); assay: SPR, mAb on Protein A, 37C, pH 7.4
Procedure: as §1

Binder | Kd [nM] | koff [s⁻¹] | kon [M⁻¹ s⁻¹]
B1 | 45 | 0.0059 | 130000
B2 | 40 | 0.006 | 150000
B3 | 46 | 0.006 | 130000

molecular target: T1, monovalent hVISTA-ECD (amino acids …); assay: SPR, mAb captured on Protein A, hVISTA-ECD analyte, 37 C, pH 6.7; remark: another data set of the same source
Procedure: as §2, §3

Binder | koff [s⁻¹]
B4 | 0.00099
B5 | 0.00061
B8 | 0.0006
B9 | 0.00083
B11 | 0.00022
B12 | 0.00095
B13 | 0.0013
B15 | 0.00057
B16 | 0.00028
B17 | 0.00064
B18 | 0.0004

Reference: patent US20250129166A1 (Five Prime, published 2025)
